Results reported in patent publication US20210355194A1 (TWIST BIOSCIENCE, published 2021).

B1: variant 6-58 (Fc fusion)
VHH: EVQLVESGGGLVQPGGSLRLSCAASGRAVSTYAMGWFRQAPGKEREFVAAISGSENVTSYADSVKGRFTISADNSKNTAYLQMNSLKPEDTAVYYCLSVTGDTEDYGVFDTWGQGTLVTVSS
B2: variant 6-5 (Fc fusion)
VHH: EVQLVESGGGLVQPGGSLRLSCAASGRTFTMGWFRQAPGKEREFVASTNSAGSTNYADSVNGRFTISADNSKNTAYLQMNSLKPEDTAVYYCTTVDQYFDYWGQGTLVTVSS
B3: variant 6-10 (Fc fusion)
VHH: EVQLVESGGGLVQPGGSLRLSCAASGSIASIHAMGWFRQAPGKEREFVAAISRSGGFGSYADSVKGRFTISADNSKNTAYLQMNSLKPEDTAVYYCARDDKYYDSSGYPAYFQHWGQGTLVTVSS
B4: variant 6-76 (Fc fusion)
VHH: EVQLVESGGGLVQPGGSLRLSCAASGLAFDFDGMGWFRQAPGKEREGVAAINSGGSTYYADSVKGRFTISADNSKNTAYLQMNSLKPEDTAVYYCARFFRAHDYWGQGTLVTVSS
B5: variant 5-56 (Fc fusion)
VHH: EVQLVESGGGLVQPGGSLRLSCAASGRTFSSNMGWFRQAPGKEREFVARIFGGDRTLYADSVKGRFTISADNSKNTAYLQMNSLKPEDTAVYYCADINGDWGQGTLVTVSS
B6: variant 6-37 (Fc fusion)
VHH: EVQLVESGGGLVQPGGSLRLSCAASGHTFSTSWMGWFRQAPGKEREFVATINSLGGTNYADSVKGRFTISADNSKNTAYLQMNSLKPEDTAVYYCARVSSGDYGMDVWGQGTLVTVSS
B7: variant 6-24 (Fc fusion)
VHH: EVQLVESGGGLVQPGGSLRLSCAASGFTLDYYAMGWFRQAPGKEREFVAAINWSGDNTHYADSVKGRFTISADNSKNTAYLQMNSLKPEDTAVYYCARAPFYCTTTKCQDNYYYMDVWGQGTLVTVSS
B8: variant 5-32 (Fc fusion)
VHH: EVQLVESGGGLVQPGGSLRLSCAASGFTPDNYAMGWFRQAPGKEREFVAALGWSGVTTYHYYADSVKGRFTISADNSKNTAYLQMNSLKPEDTAVYYCASDESDAANWGQGTLVTVSS
B9: variant 6-20 (Fc fusion)
VHH: EVQLVESGGGLVQPGGSLRLSCAASGSTLPYHAMGWFRQAPGKEREFVAAITWNGASTSYADSVKGRFTISADNSKNTAYLQMNSLKPEDTAVYYCARDRYYDTSASYFESETWGQGTLVTVSS
B10: variant 6-34 (Fc fusion)
VHH: EVQLVESGGGLVQPGGSLRLSCAASGSAFRSNAMGWFRQAPGKEREFVAHISWSSKSTYYADSVKGRFTISADNSKNTAYLQMNSLKPEDTAVYYCATYCSSTSCFDYWGQGTLVTVSS
B11: variant 6-103 (Fc fusion)
VHH: EVQLVESGGGLVQPGGSLRLSCAASGRTSSPIAMGWFRQAPGKEREPVAVRWSDDYTYYADSVKGRFTISADNSKNTAYLQMNSLKPEDTAVYYCAKKLGGYYAFDIWGQGTLVTVSS
B12: variant 5-47 (Fc fusion)
VHH: EVQLVESGGGLVQPGGSLRLSCAASGFTFGSYDMGWFRQAPGKEREFVTAINWSGARTAYADSVKGRFTISADNSKNTAYLQMNSLKPEDTAVYYCAARSVYSYEYNWGQGTLVTVSS
B13: variant 6-73 (Fc fusion)
VHH: EVQLVESGGGLVQPGGSLRLSCAASGHTFSGYAMGWFRQAPGKEREFVAVITREGSTYYADSVKGRFTISADNSKNTAYLQMNSLKPEDTAVYYCARLGGEGFDYWGQGTLVTVSS
B14: variant 6-38 (Fc fusion)
VHH: EVQLVESGGGLVQPGGSLRLSCAASGNTFSGGFMGWFRQAPGKEREFVAVISSLSSKSYADSVKGRFTISADNSKNTAYLQMNSLKPEDTAVYYCAKVDSGYDYWGQGTLVTVSS
B15: variant 5-60 (Fc fusion)
VHH: EVQLVESGGGLVQPGGSLRLSCAASGRSFSSHRMGWFRQAPGKEREFVAAIMWSGSHRNYADSVKGRFTISADNSKNTAYLQMNSLKPEDTAVYYCAAIAYEEGVYRWDWGQGTLVTVSS
B16: variant 6-13 (Fc fusion)
VHH: EVQLVESGGGLVQPGGSLRLSCAASGLTFNDYAMGWFRQAPGKEREFVAHIPRSTYSPYYADSVKGRFTISADNSKNTAYLQMNSLKPEDTAVYYCAFLVGPQGVDHGAFDVWGQGTLVTVSS
B17: variant 6-22 (Fc fusion)
VHH: EVQLVESGGGLVQPGGSLRLSCAASGRTFSEVVMGWFRQAPGKEREFVATIHSSGSTSYADSVKGRFTISADNSKNTAYLQMNSLKPEDTAVYYCVRVTSDYSMDSWGQGTLVTVSS
B18: variant 6-32 (Fc fusion)
VHH: EVQLVESGGGLVQPGGSLRLSCAASGFTLDYYDMGWFRQAPGKEREFVALISWSGGSTYYADSVKGRFTISADNSKNTAYLQMNSLKPEDTAVYYCATDFYGWGTRERDAFDIWGQGTLVTVSS
B19: variant 5-37 (Fc fusion)
VHH: EVQLVESGGGLVQPGGSLRLSCAASGSTFSINAMGWFRQAPGKEREFVGGISRSGATTNYADSVKGRFTISADNSKNTAYLQMNSLKPEDTAVYYCAADGVPEYSDYASGPVWGQGTLVTVSS
B20: variant 6-60 (Fc fusion)
VHH: EVQLVESGGGLVQPGGSLRLSCAASGDTYGSYWMGWFRQAPGKEREFVATISQSGAATAYADSVKGRFTISADNSKNTAYLQMNSLKPEDTAVYYCAGLLRYSGTYYDAFDVWGQGTLVTVSS
B21: variant 6-55 (Fc fusion)
VHH: EVQLVESGGGLVQPGGSLRLSCAASGFTMSSSWMGWFRQAPGKEREFVARITSGGSTGYADSVKGRFTISADNSKNTAYLQMNSLKPEDTAVYYCASVDGYFDYWGQGTLVTVSS
B22: variant 6-52 (Fc fusion)
VHH: EVQLVESGGGLVQPGGSLRLSCAASGDTYGSYWMGWFRQAPGKEREVVAAITSGGSTVYADSVKGRFTISADNSKNTAYLQMNSLKPEDTAVYYCARVDSRFDYWGQGTLVTVSS
B23: variant 5-67 (Fc fusion)
VHH: EVQLVESGGGLVQPGGSLRLSCAASGFNVNDYAMGWFRQAPGKEREFVAGITSSVGVTNYADSVKGRFTISADNSKNTAYLQMNSLKPEDTAVYYCAADIFFVNWGRGTLVTVSS
B24: variant 6-2 (Fc fusion)
VHH: EVQLVESGGGLVQPGGSLRLSCAASGFTMSSSWMGWFRQAPGKEREFVTVISGVGTSYADSVKGRFTISADNSKNTAYLQMNSLKPEDTAVYYCARGPDSSGYGFDYWGQGTLVTVSS
B25: variant 6-18 (Fc fusion)
VHH: EVQLVESGGGLVQPGGSLRLSCAASGLTFRNYAMGWFRQAPGKEREFIAGMMWSGGTTTYADSVKGRFTISADNSKNTAYLQMNSLKPEDTAVYYCAREGYYYDSSGYLNYFDYWGQGTLVTVSS

What follows are binders tested against CV S-protein construct 6 trimer TP31001F (SARS-CoV-2, UniProt P0DTC2 14-1208) (assay: SPR).
B1 was tested, and the Kd was 1 nM.
Work on B2 yielded a Kd of 0.8 nM.
For B3, the Kd was 0.6 nM.
B4 was tested, and the Kd was 1.77 nM.
In the case of B5, the Kd is reported as 2.77 nM.
With B6 the Kd was 0.7 nM.
With B7 the Kd was 0.2 nM.
Work on B8 yielded a Kd of 0.1 nM.
Binder B9 has a Kd of 0.3 nM.
Binder B10 has a Kd of 0.7 nM.
B11 showed a Kd of 1 nM.
With B12 the Kd was 0.7 nM.
For B13, the Kd was 0.52 nM.
B14 gave a Kd of 0.5 nM.
With B15 the Kd was 0.8 nM.
Binder B16 has a Kd of 0.6 nM.
B17 was tested, and the Kd was 1.8 nM.
In the case of B18, the Kd is reported as 0.1 nM.
B19 gave a Kd of 1.8 nM.
Work on B20 yielded a Kd of 0.1 nM.
Work on B21 yielded a Kd of 0.3 nM.
B22 gave a Kd of 1.1 nM.
B23 was tested, and the Kd was 1 nM.
B24 gave a Kd of 1.2 nM.
B25 gave a Kd of 5.3 nM.
